Data on one substance can be found in patent US20250222125A1, “Anti-FGFR2b Antibodies, Conjugates and Methods of Use” (BeiGene, Ltd., priority 2024, published 2025).

One series has as its system BaF3_hFGFR2b OE cells. The series is described as follows: Ligand-induced proliferation inhibition assay in BaF3_hFGFR2b OE cells. Type of series: cell-based. To be noted: antibody 10 μg/ml, heparin 5 μg/ml, 72 hours. How it is done: The inhibition activity of antibody on ligand-induced cell proliferation was evaluated in an FGFR2b engineered BaF3 cell line system (BaF3_hFGFR2b OE). BaF3 cells are dependent on interleukin-3 (IL-3) for growth. The BaF3 system allows for testing of kinases and kinase inhibitors. Some protein kinases can render BaF3 cells to be independent of IL-3, whereas kinase inhibitors antagonize this effect. Cells were seeded in 96-well plates at 30,000 cells/well in RPMI-1640 medium containing 10% fetal bovine serum. Anti-FGFR2b antibodies at a concentration of 10 μg/ml were added to the assay plates. Recombinant human FGF7 or FGF10 protein (40 ng/ml) in the presence of heparin (5 μg/ml) was added to the assay plates. The plates were incubated at 37° C., 5% CO2, 95% humidity in an incubator for 72 hours. Following incubation, 50 μl Cell Titer Glo reagent was added to each well and the plates were mixed for 1 min and then incubated at RT for 10 min. Luminescence signals were detected and recorded.
The Ba/F3 system is used to investigate downstream oncogenic signaling pathways and the susceptibility of driver variants to therapeutics. Driver-addicted Ba/F3 cells die when the driver-engaged signaling pathway is inhibited, and this effect can be rescued by re-introduction of […].
FIGS. 6 and 7 show the results of Ba/F3 proliferation assays. […]

Series [1] addresses T1, soluble human FGFR2b proteins (Homo sapiens, UniProt P21802).
T1 construct: soluble human FGFR2b proteins (his tag, in-house generated); His tag; made in house
The series is described as follows: SPR binding kinetics (Biacore 8K, Example 5). The following applies: room temperature. How it is done: The binding affinity and kinetics of purified anti-FGFR2b antibodies were determined by surface plasmon resonance (Biacore 8K, GE Life Sciences) at room temperature. Briefly, mouse anti-human IgG Fc antibody was immobilized via amine coupling onto a activated CM5 biosensor chip (Cat. No. BR100530, GE Life Sciences). Purified monoclonal antibody candidates were flowed over the chip surface and captured by anti-human IgG antibody. Then a serial dilution of soluble human FGFR2b proteins (his tag, in-house generated) were injected over the antibodies captured surface and changes in surface plasmon resonance signals were analyzed to calculate the association rates (kon) and dissociation rates (koff) by using the one-to-one Langmuir binding model (BIA Evaluation Software, GE Life Sciences). The equilibrium dissociation constant (KD) was calculated as the ratio koff/kon.
(In general: SPR reads the build-up and loss of mass on a sensor chip optically.)

The target in a further series is human FGFR2b (Homo sapiens, UniProt P21802). The series is described as follows: ELISA protein binding to human FGFR2b (Example 4). The following applies: coated protein. How it is done:
(§1) The binding affinity and specificity of purified anti-FGFR2b antibodies were determined by ELISA and FACS. […] After incubation and washing, the plates were developed with HRP substrate and absorbance was measured. […] After washing twice with FACS buffer, diluted Alexa Fluor 647 goat anti-human IgG secondary antibody was added and incubated with cells for 30 minutes at 4° C. in the dark. After washing twice with FACS buffer, cells were resuspended with FACS buffer and read using a Becton Dickinson LSR FortessaTM cell analyzer. Non-specific binding of these antibodies was evaluated by FACS binding against parental 293T blank cells. Titration curves were generated using a sigmoidal dose-response of nonlinear fit from GraphPadTM Software by Dotmatics.

In another series the target is T2, Murine FGFR2b OE cells (Mus musculus, UniProt P21803).
T2 construct: expressed in transfected cells; host or cells: 293T
The series is described as follows: FACS cellular binding, murine FGFR2b OE cells (Example 4). How it is done:
as §1

Series [2] relates to co-inoculated HSC-39+SNU-5 xenografts. The series is described as follows: Co-inoculated HSC-39+SNU-5 gastric cancer xenografts. It counts as in vivo, BALB/c nude mice. The following applies: HSC-39:SNU-5 ratios of 2:1 and 5:1, single dose 10 mpk i.v. How it is done:
HSC-39 and SNU-5 were cultured in Dulbecco's modified Eagle's medium (DMEM), supplemented with 10% (v/v) fetal bovine serum, 100 U/ml penicillin, and 100 μg/mL streptomycin. Cells were incubated in a humidified incubator with 5% CO2 at 37° C. On the day of implantation, cells were collected and washed with serum-free medium. Six- to eight-week-old female BALB/c nude mice were purchased and housed in ventilated cages, given food and water ad libitum, and allowed to acclimate for approximately 1 week prior to inoculation. A total of 5×10^6 HSC-39 and SNU-5 cancer cells mixed with matrigel at a ratio of 2:1 or 5:1 were implanted subcutaneously into the mouse flank. […] Tumor volumes were measured twice weekly. Data is presented as mean tumor volume ±standard error of the mean (SEM). In the vehicle group at a 2:1 HSC-39:SNU-5 ratio, there were ˜50% FGFR2b positive cells in the tumor at the starting point with ˜40% at the end point. In the vehicle group at a 5:1 HSC-39:SNU-5 ratio, there were ˜60% FGFR2b positive cells in the tumor at the starting point with ˜20% at the end point.

The test system of series [3] is phosphorylated FGFR in SNU-16 cells. The series is described as follows: Inhibition of FGFR2 signaling in SNU-16 cells (Western blot of pFGFR). Type of series: cell-based. To be noted: antibody 10 μg/ml, 2 hours. How it is done: Inhibition of the FGFR2 signaling pathway by the humanized antibodies was investigated. SNU-16 cells were grown in RPMI-1640 medium with 10% FBS, collected and washed twice with free medium and then seeded in 12-well plates at 1.5E6 cells/well in serum-free RPMI-1640. The plates were incubated at 37° C., 5% CO2, and 95% humidity in an incubator overnight. Anti-FGFR2b antibodies at a concentration of 10 μg/ml were added to the assay plates. Recombinant human FGF7 or FGF10 protein (10 ng/ml) in the presence of heparin (5 μg/ml) was added to the assay plates. The plates were incubated in a 37° C., 5% CO2, 95% humidity incubator for 2 hours. Following 2 hours incubation, cells were collected and washed twice with cold PBS. NP40 lysis buffer containing 1×PMSF and 1× Protease plus phosphatase inhibitors were added to the cell pellets. The mixture was pipetted up and down to suspend the pellet. The mixture was inverted gently and each placed for 10 minutes on ice, for a total of 30 minutes. The mixture was centrifuged at 12000× rpm for 10 minutes to pellet the cell debris. The supernatant was transferred to a new tube to quantify total protein concentration by BCA Kit. The protein samples were then split and stored at −80° C. for further Western blotting to detect the expression of pFGFR and total FGFR2. […]
A general note: In western blotting, separated proteins are transferred to a membrane and probed.

For the next series, the system named is 293T blank cells. The series is described as follows: FACS non-specific binding, parental 293T blank cells (Example 4). How it is done:
as §1

For series [4] the following is noted: patients; cited from earlier work.
Another series concerns the target T3, Human FGFR2b OE cells (Homo sapiens, UniProt P21802).
T3 construct: expressed in transfected cells; host or cells: 293T
The series is described as follows: FACS cellular binding, human FGFR2b OE cells (Example 4). How it is done:
as §1

For another series, the target named is Human FGFR2c (Homo sapiens, UniProt P21802). The series is described as follows: ELISA protein binding to human FGFR2c (Example 4). The following applies: coated protein. How it is done:
as §1

Another series concerns the target Human FGFR2c OE cells (Homo sapiens, UniProt P21802). The series is described as follows: FACS cellular binding, human FGFR2c OE cells (Example 4). How it is done:
as §1

T1 sequence (P21802 22-378 isoform P21802-3 limits assumed): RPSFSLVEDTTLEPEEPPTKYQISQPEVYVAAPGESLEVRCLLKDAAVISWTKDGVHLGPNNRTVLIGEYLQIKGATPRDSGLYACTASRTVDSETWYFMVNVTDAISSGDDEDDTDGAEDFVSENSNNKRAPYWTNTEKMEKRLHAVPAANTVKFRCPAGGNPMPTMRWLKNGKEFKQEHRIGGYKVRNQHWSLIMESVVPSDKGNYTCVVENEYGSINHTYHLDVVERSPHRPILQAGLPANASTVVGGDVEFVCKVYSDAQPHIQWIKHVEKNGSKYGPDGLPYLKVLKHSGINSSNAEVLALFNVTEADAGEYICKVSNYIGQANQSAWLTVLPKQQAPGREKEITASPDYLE
Sequence of human FGFR2b (P21802 22-822 isoform P21802-3 limits assumed): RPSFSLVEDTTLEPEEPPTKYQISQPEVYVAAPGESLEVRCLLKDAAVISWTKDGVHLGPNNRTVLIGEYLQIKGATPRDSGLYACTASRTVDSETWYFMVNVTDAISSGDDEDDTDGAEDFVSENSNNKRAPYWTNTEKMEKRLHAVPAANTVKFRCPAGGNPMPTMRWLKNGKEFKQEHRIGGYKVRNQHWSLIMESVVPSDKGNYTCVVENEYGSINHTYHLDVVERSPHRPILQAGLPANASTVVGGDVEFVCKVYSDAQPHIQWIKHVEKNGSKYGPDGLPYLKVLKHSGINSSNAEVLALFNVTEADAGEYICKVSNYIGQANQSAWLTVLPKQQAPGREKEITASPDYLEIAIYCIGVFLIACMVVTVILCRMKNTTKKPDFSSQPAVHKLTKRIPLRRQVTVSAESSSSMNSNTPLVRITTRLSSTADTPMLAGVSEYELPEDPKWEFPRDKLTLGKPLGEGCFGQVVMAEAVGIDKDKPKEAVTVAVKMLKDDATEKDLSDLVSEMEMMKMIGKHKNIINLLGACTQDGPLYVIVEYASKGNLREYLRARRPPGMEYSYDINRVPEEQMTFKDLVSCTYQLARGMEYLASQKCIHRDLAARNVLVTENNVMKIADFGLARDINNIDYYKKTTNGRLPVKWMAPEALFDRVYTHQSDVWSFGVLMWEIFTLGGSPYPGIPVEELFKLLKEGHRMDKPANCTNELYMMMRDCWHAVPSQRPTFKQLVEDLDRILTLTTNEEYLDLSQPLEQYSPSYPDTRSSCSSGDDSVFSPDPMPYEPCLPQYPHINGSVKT
T3 sequence (P21802 22-822 isoform P21802-3 limits assumed): as above
Sequence of Human FGFR2c (P21802 22-821): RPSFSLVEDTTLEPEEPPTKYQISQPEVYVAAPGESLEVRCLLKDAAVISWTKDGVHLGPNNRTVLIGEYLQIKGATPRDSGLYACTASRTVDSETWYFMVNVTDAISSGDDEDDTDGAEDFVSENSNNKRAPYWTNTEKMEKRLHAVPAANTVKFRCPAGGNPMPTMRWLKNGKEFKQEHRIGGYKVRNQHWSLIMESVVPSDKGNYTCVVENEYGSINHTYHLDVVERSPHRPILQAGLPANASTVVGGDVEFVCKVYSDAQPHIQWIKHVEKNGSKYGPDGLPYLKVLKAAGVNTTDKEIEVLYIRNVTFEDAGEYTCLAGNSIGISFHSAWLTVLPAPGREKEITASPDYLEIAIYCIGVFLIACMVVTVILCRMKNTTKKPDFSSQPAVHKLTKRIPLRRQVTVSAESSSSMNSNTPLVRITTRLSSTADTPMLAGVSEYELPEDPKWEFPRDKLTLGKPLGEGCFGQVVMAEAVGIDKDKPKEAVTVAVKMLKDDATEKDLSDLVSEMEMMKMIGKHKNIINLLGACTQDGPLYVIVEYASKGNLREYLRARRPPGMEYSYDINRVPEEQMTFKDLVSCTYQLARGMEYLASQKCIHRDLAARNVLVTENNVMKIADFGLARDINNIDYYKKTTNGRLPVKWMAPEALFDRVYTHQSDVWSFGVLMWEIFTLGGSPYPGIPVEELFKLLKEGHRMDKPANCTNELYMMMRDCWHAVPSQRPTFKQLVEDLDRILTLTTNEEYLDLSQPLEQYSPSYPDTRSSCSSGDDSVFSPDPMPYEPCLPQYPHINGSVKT
Sequence of Human FGFR2c OE cells (P21802 22-821): as above
T2 sequence (P21803 22-707 isoform P21803-2 limits assumed): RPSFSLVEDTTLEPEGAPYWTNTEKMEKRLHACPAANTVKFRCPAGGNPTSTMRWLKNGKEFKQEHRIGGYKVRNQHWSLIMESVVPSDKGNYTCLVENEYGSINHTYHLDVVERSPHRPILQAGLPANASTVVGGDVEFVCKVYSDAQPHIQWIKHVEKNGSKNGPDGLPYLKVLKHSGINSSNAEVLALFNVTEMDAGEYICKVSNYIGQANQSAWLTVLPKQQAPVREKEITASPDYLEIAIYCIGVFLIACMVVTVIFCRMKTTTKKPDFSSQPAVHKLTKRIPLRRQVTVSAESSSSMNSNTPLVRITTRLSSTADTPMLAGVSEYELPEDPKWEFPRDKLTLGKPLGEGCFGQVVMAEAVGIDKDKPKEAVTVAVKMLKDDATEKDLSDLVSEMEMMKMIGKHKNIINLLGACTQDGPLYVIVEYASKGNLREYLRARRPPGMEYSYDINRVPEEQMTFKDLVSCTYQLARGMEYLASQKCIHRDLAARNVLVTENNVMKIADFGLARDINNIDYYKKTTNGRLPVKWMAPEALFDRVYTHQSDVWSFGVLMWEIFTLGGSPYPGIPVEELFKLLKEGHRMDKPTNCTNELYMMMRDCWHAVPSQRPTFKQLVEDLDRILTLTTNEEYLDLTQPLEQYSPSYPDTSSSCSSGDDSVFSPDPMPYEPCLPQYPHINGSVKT

The Kd is the free concentration of one partner at which half of the binding sites on the other are occupied at equilibrium, for simple one-to-one binding. A high value points to lower affinity. What is called EC50 is the concentration giving half of the maximal effect. Regarding “BGA1421: comparator antibody bemarituzumab, un-conjugated; HC SEQ ID NO: 35, LC SEQ ID NO: 36 [reference compound]”, the “inhibition of FGF7-induced BaF3_hFGFR2b cell proliferation” value in the series with BaF3_hFGFR2b OE cells (FGF7 40 ng/ml) is “potently inhibit”. Further, in the series on BaF3_hFGFR2b OE cells (FGF10 40 ng/ml), the “inhibition of FGF10-induced BaF3_hFGFR2b cell proliferation” value was “potently inhibit”. The same substance showed a ka in series [1] (antibody captured) of 104000 M⁻¹ s⁻¹. The same substance had a kd in series [1] (antibody captured) of 0.00232 s⁻¹. The Kd in [1] (koff/kon) amounted to 22200 pM. Besides, the EC50 with human FGFR2b was found to be 610 pM; in the series with Murine FGFR2b OE cells it was 810 pM; in the series with Human FGFR2b OE cells, 480 pM. For the same substance, the “Human FGFR2b binding Emax(OD450)” value with human FGFR2b stood at 2.62 OD450. In addition, the tumor growth result in series [2] is on record as “inhibited tumor growth but was less potent”. In [3] (FGF7 10 ng/ml), the “FGF7-induced FGFR phosphorylation” value was “down-regulation of phosphorylated FGFR”. In addition, in series [3] (FGF10 10 ng/ml), the “FGF10-induced FGFR phosphorylation” value is listed as “down-regulation of phosphorylated FGFR”. Further, the “293T blank cells binding Emax” value in the series on 293T blank cells came to 18 MFI. In series [4], the “treatment discontinuation rate caused by corneal toxicity” value is given as 26%. In the series with Human FGFR2c, the “Human FGFR2c binding Emax(OD450)” value is listed as 0.09 OD450. Moreover, in the series with Human FGFR2c OE cells, the “Human FGFR2c OE cells binding Emax” value was found to be 40 MFI.
